Source: the supplement of paper PMC6757056
± gives the standard deviation of the averaged measurements.

B1: library; a variant is named by its letters at N, in order (parent)
chain: GCUGUCACCGAGAAACUGUGAAGUAUAUCUUAAACCUGGGCACUUAAAAGAUAUAUGGAGUUAGUAGUGCAACCUGCUCGGUCUGAUGAGUCCNNNNNNGGACGAAACAGC

How the values were obtained:
[1] = variants of: B1; assay: FACS-Seq fitted mean relative fluorescence mCherry/BFP without ligand (log10 relative fluorescence); HEK293T; ligand: cyclic di-GMP (c-di-GMP-II aptamer); higher = higher reporter protein expression; conditions: ligand present: no
Method in brief: (§1)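 Enriched HEK293T cells carrying, by lentivirus, an mCherry reporter with the ribozyme switch and an EF1α-BFP marker spent 48 h with or without ligand and were sorted into 6 bins by mCherry/BFP. MiSeq sequencing of PCR-amplified bin genomic DNA gave bin counts. Fluorescence was calculated as the fitted normal mean of those counts. Counts were binned on log10(mCherry/BFP), and means were scaled to five spiked-in control ribozymes.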

[2] = variants of: B1; assay: normalized RNA/DNA level without ligand (relative to sTRSVctl = 100) (log10 (% of sTRSVctl)); HEK293T; ligand: cyclic di-GMP (c-di-GMP-II aptamer); higher = less ribozyme self-cleavage, higher mRNA level; conditions: reporter: mCherry (pCS4076), ligand present: no
Method in brief: (§2)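 HEK293T cells received ligand, where used, 1 h before being transfected with 4 µg per 6-well well of library plasmids encoding reporter-linked ribozyme switches. After 72 h, RNA was extracted with EDTA and sequenced. RNA level was derived from RNA reads per DNA read, normalized to a spiked-in non-cleaving sequence or the top sequences, then scaled and log-transformed. Values were ×100 then log10, the top set was 25 sequences, and the minimum was 100 DNA reads.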

[3] = variants of: B1; assay: FACS-Seq fitted mean relative fluorescence mCherry/BFP with ligand (log10 relative fluorescence); HEK293T; ligand: cyclic di-GMP (c-di-GMP-II aptamer); ligand concentration (+) FACS-Seq: 1 mM; higher = higher reporter protein expression; conditions: ligand present: yes
Method in brief: as §1

[4] = variants of: B1; assay: normalized RNA/DNA level with ligand (relative to sTRSVctl = 100) (log10 (% of sTRSVctl)); HEK293T; ligand: cyclic di-GMP (c-di-GMP-II aptamer); ligand concentration (+) RNA-Seq: 1 mM; higher = less ribozyme self-cleavage, higher mRNA level; conditions: reporter: mCherry (pCS4076), ligand present: yes
Method in brief: as §2

Variant | FACS-Seq fitted mean (log10) [1] | normalized RNA/DNA level without ligand (log10) [2] | FACS-Seq fitted mean (log10) [3] | normalized RNA/DNA level with ligand (log10) [4]
CCCCUA | -0.244 ± 0.03 | 1.56 ± 0.054 | 0.111 ± 0.091 | 1.74 ± 0.093
CCGGGG | -0.589 ± 0.03 | 1.43 ± 0.022 | -0.295 ± 0.011 | 1.62 ± 0.11
CCGGCU | -0.0371 ± 0.0037 | 1.74 ± 0.033 | 0.118 ± 0.024 | 1.89 ± 0.077
ACGUAA | -0.0329 ± 0.12 | 1.43 ± 0.079 | 0.314 ± 0.082 | 1.63 ± 0.087
ACGUAU | -0.637 ± 0.067 | 1.34 ± 0.1 | -0.336 ± 0.0036 | 1.54 ± 0.036
CCUCAA | 0.0135 ± 0.11 | 1.46 ± 0.1 | 0.263 ± 0.07 | 1.67 ± 0.066
CCUCAG | -0.325 ± 0.018 | 1.669 ± 0.003 | -0.0311 ± 0.077 | 1.81 ± 0.14
GCCGAA | -0.291 ± 0.03 | 1.45 ± 0.11 | -0.0327 ± 0.018 | 1.72 ± 0.091
GCCGAC | -0.43 ± 0.062 | 1.48 ± 0.13 | -0.145 ± 0.015 | 1.67 ± 0.089
GCCGAU | -0.47 ± 0.078 | 1.55 ± 0.034 | -0.231 ± 0.064 | 1.74 ± 0.1
CCGGAA | -0.512 ± 0.023 | 1.28 ± 0.09 | -0.209 ± 0.03 | 1.47 ± 0.12
CCGGAC | -0.253 ± 0.11 | 1.62 ± 0.034 | -0.0326 ± 0.0056 | 1.75 ± 0.086
CCGGAU | -0.339 ± 0.015 | 1.55 ± 0.074 | -0.0202 ± 0.13 | 1.76 ± 0.1
CCUAUA | -0.492 ± 0.012 | 1.43 ± 0.12 | -0.121 ± 0.047 | 1.65 ± 0.067
GCUAUG | -0.741 ± 0.034 | 1.58 ± 0.075 | -0.505 ± 0.019 | 1.72 ± 0.078
GCUAUA | -0.262 ± 0.11 | 1.55 ± 0.058 | -0.134 ± 0.099 | 1.73 ± 0.11
CCGACA | -0.323 ± 0.017 | 1.56 ± 0.068 | -0.142 ± 0.068 | 1.74 ± 0.11
GCCAGG | -0.568 ± 0.068 | 1.75 ± 0.071 | -0.429 ± 0.034 | 1.84 ± 0.087

Variant | FACS-Seq fitted mean (log10) [1] | normalized RNA/DNA level without ligand (log10) [2] | FACS-Seq fitted mean (log10) [3] | normalized RNA/DNA level with ligand (log10) [4]
ACUACA | -0.0979 ± 0.082 | 1.55 ± 0.03 | 0.212 ± 0.16 | 1.73 ± 0.11
UCGUAC | 0.087 ± 0.015 | 1.653 ± 0.01 | 0.277 ± 0.023 | 1.81 ± 0.14
GCGCUC | 0.151 ± 0.12 | 1.45 ± 0.13 | 0.324 ± 0.017 | 1.62 ± 0.17
GCGCUA | -0.702 ± 0.086 | 1.65 ± 0.043 | -0.433 ± 0.079 | 1.78 ± 0.17
ACGGAU | -0.662 ± 0.045 | 1.29 ± 0.16 | -0.374 ± 0.0087 | 1.4 ± 0.15
ACGGAG | -0.541 ± 0.036 | 1.46 ± 0.12 | -0.151 ± 0.062 | 1.61 ± 0.15
ACGGAA | -0.62 ± 0.042 | 1.31 ± 0.097 | -0.325 ± 0.031 | 1.47 ± 0.13
GCCGGU | 0.00404 ± 0.21 | 1.63 ± 0.03 | 0.3204 ± 0.0024 | 1.79 ± 0.087
ACCACC | -0.899 ± 0.064 | 1.6 ± 0.088 | -0.618 ± 0.019 | 1.76 ± 0.097
ACCGAA | -0.328 ± 0.091 | 1.44 ± 0.08 | -0.063 ± 0.13 | 1.62 ± 0.12
UCGAAA | -0.535 ± 0.0031 | 1.32 ± 0.069 | -0.158 ± 0.043 | 1.58 ± 0.12
ACCUAA | -0.281 ± 0.029 | 1.57 ± 0.053 | 0.102 ± 0.075 | 1.76 ± 0.056
ACCUAU | -0.223 ± 0.079 | 1.59 ± 0.055 | -0.113 ± 0.043 | 1.79 ± 0.11
ACCAUA | -0.294 ± 0.15 | 1.51 ± 0.065 | 0.0129 ± 0.043 | 1.71 ± 0.11
UCCAGA | -0.246 ± 0.071 | 1.631 ± 0.014 | 0.0947 ± 0.062 | 1.82 ± 0.081
UCCAGC | -0.739 ± 0.051 | 1.66 ± 0.059 | -0.609 ± 0.015 | 1.84 ± 0.15
CCCUAG | -0.7711 ± 0.0036 | 1.65 ± 0.031 | -0.624 ± 0.025 | 1.84 ± 0.13
CCCUGC | -0.0175 ± 0.34 | 1.792 ± 0.0034 | 0.142 ± 0.079 | 1.9 ± 0.16
